B1: Conserved oligomeric Golgi complex subunit 4 (Homo sapiens), Q9H9E3 (parent)
chain: MADLDSPPKLSGVQQPSEGVGGGRCSEISAELIRSLTELQELEAVYERLCGEEKVVERELDALLEQQNTIESKMVTLHRMGPNLQLIEGDAKQLAGMITFTCNLAENVSSKVRQLDLAKNRLYQAIQRADDILDLKFCMDGVQTALRSEDYEQAAAHTHRYLCLDKSVIELSRQGKEGSMIDANLKLLQEAEQRLKAIVAEKFAIATKEGDLPQVERFFKIFPLLGLHEEGLRKFSEYLCKQVASKAEENLLMVLGTDMSDRRAAVIFADTLTLLFEGIARIVETHQPIVETYYGPGRLYTLIKYLQVECDRQVEKVVDKFIKQRDYHQQFRHVQNNLMRNSTTEKIEPRELDPILTEVTLMNARSELYLRFLKKRISSDFEVGDSMASEEVKQEHQKCLDKLLNNCLLSCTMQELIGLYVTMEEYFMRETVNKAVALDTYEKGQLTSSMVDDVFYIVKKCIGRALSSSSIDCLCAMINLATTELESDFRDVLCNKLRMGFPATTFQDIQRGVTSAVNIMHSSLQQGKFDTKGIESTDEAKMSFLVTLNNVEVCSENISTLKKTLESDCTKLFSQGIGGEQAQAKFDSCLSDLAAVSNKFRDLLQEGLTELNSTAIKPQVQPWINSFFSVSHNIEEEEFNDYEANDPWVQQFILNLEQQMAEFKASLSPVIYDSLTGLMTSLVAVELEKVVLKSTFNRLGGLQFDKELRSLIAYLTTVTTWTIRDKFARLSQMATILNLERVTEILDYWGPNSGPLTWRLTPAEVRQVLALRIDFRSEDIKRLRL

Variants of: B1
Settings: with scfd1_human SCFD1, Q8WVM8
Sequence of scfd1_human SCFD1, Q8WVM8 (Q8WVM8 whole entry, looked up): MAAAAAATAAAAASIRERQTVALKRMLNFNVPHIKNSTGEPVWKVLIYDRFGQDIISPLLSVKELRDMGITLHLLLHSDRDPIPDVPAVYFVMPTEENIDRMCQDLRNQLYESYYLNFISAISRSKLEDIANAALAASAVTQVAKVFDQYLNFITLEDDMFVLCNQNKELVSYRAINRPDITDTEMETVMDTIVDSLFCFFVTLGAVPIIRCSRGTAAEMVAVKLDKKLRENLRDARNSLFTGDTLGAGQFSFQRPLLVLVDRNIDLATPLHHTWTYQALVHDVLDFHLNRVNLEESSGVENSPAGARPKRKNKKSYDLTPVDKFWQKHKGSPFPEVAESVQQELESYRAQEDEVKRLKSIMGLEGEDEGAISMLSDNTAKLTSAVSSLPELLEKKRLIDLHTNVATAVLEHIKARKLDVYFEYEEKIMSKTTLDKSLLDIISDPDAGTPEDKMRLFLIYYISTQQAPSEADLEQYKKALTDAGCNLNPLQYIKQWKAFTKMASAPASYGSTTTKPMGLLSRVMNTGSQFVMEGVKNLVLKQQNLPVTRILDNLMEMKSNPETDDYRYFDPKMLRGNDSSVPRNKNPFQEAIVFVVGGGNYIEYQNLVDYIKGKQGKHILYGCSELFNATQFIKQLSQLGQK

Variant | effect of a mutation on the interaction
E71A | disrupting interaction
E53A | disrupting interaction

Variants of: B1
Settings: with scfd1_human SCFD1, Q8WVM8
Remark: another data set of the same source

Variant | effect of a mutation on the interaction
E53A | decreasing interaction

Source: IntAct's records for PubMed 19536132
